Data set [1] relates to HeLa Kyoto. The data set can be described thus: solubility in G1/S (NP-40 vs SDS abundance) (log2 ratio); higher = more soluble. Particulars: cell cycle stage: G1/S.
The test system of data set [2] is HeLa Kyoto. The data set can be described thus: solubility change mitosis vs G1/S (difference of NP-40 vs SDS log2 ratios) (log2 ratio difference); higher = more soluble in mitosis.
Data set [3] deals with HeLa Kyoto. Nature of the data set: thermal stability score vs G1/S (z-score of summed log2 fold changes over temperatures); higher = more thermally stable than in G1/S.
The subject of data set [4] is HeLa Kyoto. Nature of the data set: melting temperature (median over replicates), in situ; higher = more thermally stable.
Where [5] appears, read: cell cycle stage: early G1 (4.5 h after nocodazole release).

From the supplement of paper PMC5998384 come the findings set out here.
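Throughout, for melting temperature (median over replicates), in situ: HeLa Kyoto cells synchronized by double thymidine or nocodazole block, proteins quantified by TMT10plex mass spectrometry, three independent biological replicates.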
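Throughout, for solubility change mitosis vs G1/S (difference of NP-40 vs SDS log2 ratios): synchronized HeLa Kyoto cells (double thymidine block for G1/S, nocodazole release for mitosis), protein amounts in NP-40 versus SDS lysates quantified by mass spectrometry, three biological replicates.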
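Throughout, for solubility in G1/S (NP-40 vs SDS abundance): HeLa Kyoto cells arrested at G1/S by double thymidine block, proteins quantified by TMT10plex mass spectrometry in mild NP-40 versus SDS extracts, three biological replicates.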
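Throughout, for thermal stability score vs G1/S (z-score of summed log2 fold changes over temperatures): synchronized HeLa Kyoto cells, proteins quantified by TMT10plex mass spectrometry, three biological replicates, mitosis taken 0.5 h after nocodazole release, G1/S directly after double thymidine block.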

Sequence of IRF2BP2 (chain, as listed by the source): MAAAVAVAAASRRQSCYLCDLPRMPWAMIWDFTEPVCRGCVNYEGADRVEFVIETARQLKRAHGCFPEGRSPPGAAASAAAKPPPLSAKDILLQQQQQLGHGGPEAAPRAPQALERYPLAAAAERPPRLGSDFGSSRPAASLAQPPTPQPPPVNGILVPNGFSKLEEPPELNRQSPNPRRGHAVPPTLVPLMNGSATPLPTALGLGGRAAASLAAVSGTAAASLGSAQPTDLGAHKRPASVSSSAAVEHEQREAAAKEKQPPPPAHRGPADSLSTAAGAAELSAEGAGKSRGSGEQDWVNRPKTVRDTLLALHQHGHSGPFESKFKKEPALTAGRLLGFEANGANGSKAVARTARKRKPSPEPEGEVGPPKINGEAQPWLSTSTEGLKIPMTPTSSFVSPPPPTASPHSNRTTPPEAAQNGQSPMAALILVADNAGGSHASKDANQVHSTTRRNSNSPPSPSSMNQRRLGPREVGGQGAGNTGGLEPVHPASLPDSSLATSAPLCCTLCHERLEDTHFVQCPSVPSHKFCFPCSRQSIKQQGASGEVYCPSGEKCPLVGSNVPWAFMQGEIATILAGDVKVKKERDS

IRF2BP2: in the data set with HeLa Kyoto [1], the “solubility in G1/S (log2)” value was determined as 0.391. In addition, in the data set on HeLa Kyoto [2], the “solubility change mitosis (log2)” value was -0.0308. Also, the thermal stability score is -0.348 in the data set with HeLa Kyoto [3] (setting [5]) and -1.16 in the data set with HeLa Kyoto [3] (cell cycle stage: mitosis). For the same substance, the figures for the melting temperature with HeLa Kyoto [4] (cell cycle stage: G1/S) and with HeLa Kyoto [4] (cell cycle stage: mitosis) were 53 °C and 52.6 °C, respectively.

As for ITSN1, in the data set with HeLa Kyoto [1], the “solubility in G1/S (log2)” value turned out to be 0.0319. In the data set on HeLa Kyoto [2], the “solubility change mitosis (log2)” value was -0.0764. For the same substance, the figures for the thermal stability score in the data set with HeLa Kyoto [3] (setting [5]) and in the data set on HeLa Kyoto [3] (cell cycle stage: mitosis) were -0.00548 and 0.39, respectively. Besides, the results for the melting temperature in the data set on HeLa Kyoto [4] (cell cycle stage: G1/S) and with HeLa Kyoto [4] (cell cycle stage: mitosis) were 49.5 °C and 50.2 °C, respectively.

Consider JMJD1C, for which the “solubility in G1/S (log2)” value in the data set with HeLa Kyoto [1] was -0.105. Besides, the “solubility change mitosis (log2)” value in the data set on HeLa Kyoto [2] was -0.0573. Further, the thermal stability score in the data set with HeLa Kyoto [3] (setting [5]) stood at 0.98; in the data set on HeLa Kyoto [3] (cell cycle stage: mitosis) it was 0.156. Besides, the melting temperature in the data set on HeLa Kyoto [4] (cell cycle stage: G1/S) was 50.2 °C; in the data set on HeLa Kyoto [4] (cell cycle stage: mitosis), 50.7 °C.

As for KIF13A, in the data set with HeLa Kyoto [1], the “solubility in G1/S (log2)” value was -0.0515. Moreover, in the data set with HeLa Kyoto [2], the “solubility change mitosis (log2)” value was -0.102. The thermal stability score in the data set on HeLa Kyoto [3] (setting [5]) was -0.212; in the data set on HeLa Kyoto [3] (cell cycle stage: mitosis) it was -0.151. Also, the figures for the melting temperature in the data set with HeLa Kyoto [4] (cell cycle stage: G1/S) and in the data set with HeLa Kyoto [4] (cell cycle stage: mitosis) were 51.9 °C and 51.4 °C, respectively.

With KIF14, the “solubility in G1/S (log2)” value in the data set with HeLa Kyoto [1] was -0.297. In the data set on HeLa Kyoto [2], the “solubility change mitosis (log2)” value was -0.0203. Also, the thermal stability score is -0.945 in the data set with HeLa Kyoto [3] (setting [5]) and -2.77 with HeLa Kyoto [3] (cell cycle stage: mitosis). Besides, the melting temperature stood at 49.1 °C with HeLa Kyoto [4] (cell cycle stage: G1/S) and 45.5 °C in the data set on HeLa Kyoto [4] (cell cycle stage: mitosis).

For the substance LACTB2, in the data set on HeLa Kyoto [1], the “solubility in G1/S (log2)” value is 0.418. For the same substance, the “solubility change mitosis (log2)” value in the data set with HeLa Kyoto [2] is -0.0335. Besides, the thermal stability score with HeLa Kyoto [3] (setting [5]) is -2.61; in the data set on HeLa Kyoto [3] (cell cycle stage: mitosis), -0.348. Besides, the melting temperature in the data set with HeLa Kyoto [4] (cell cycle stage: G1/S) worked out at 57.7 °C; with HeLa Kyoto [4] (cell cycle stage: mitosis), 56.1 °C.
